What all share (experiment): cell-based or functional assay
For assay [1], the target named is mouse factor B (endogenous, in diluted whole mouse serum) (mouse) (UniProt P04186).
Assay [2] deals with purified human factor B protein (Quidel, Catalog# A408) (human) (UniProt P00751).
Assay [3] concerns the target human complement factor D (human) (UniProt P00746).
Sequence of UniProt P00746 (P00746 26-253 limits assumed): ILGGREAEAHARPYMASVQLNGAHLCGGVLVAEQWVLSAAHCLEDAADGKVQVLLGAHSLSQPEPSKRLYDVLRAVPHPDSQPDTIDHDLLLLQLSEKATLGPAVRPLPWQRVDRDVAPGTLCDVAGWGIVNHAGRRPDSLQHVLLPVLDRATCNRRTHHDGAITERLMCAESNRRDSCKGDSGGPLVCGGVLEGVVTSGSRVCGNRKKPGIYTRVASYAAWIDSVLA

Sequence of UniProt P00751 (P00751 26-764): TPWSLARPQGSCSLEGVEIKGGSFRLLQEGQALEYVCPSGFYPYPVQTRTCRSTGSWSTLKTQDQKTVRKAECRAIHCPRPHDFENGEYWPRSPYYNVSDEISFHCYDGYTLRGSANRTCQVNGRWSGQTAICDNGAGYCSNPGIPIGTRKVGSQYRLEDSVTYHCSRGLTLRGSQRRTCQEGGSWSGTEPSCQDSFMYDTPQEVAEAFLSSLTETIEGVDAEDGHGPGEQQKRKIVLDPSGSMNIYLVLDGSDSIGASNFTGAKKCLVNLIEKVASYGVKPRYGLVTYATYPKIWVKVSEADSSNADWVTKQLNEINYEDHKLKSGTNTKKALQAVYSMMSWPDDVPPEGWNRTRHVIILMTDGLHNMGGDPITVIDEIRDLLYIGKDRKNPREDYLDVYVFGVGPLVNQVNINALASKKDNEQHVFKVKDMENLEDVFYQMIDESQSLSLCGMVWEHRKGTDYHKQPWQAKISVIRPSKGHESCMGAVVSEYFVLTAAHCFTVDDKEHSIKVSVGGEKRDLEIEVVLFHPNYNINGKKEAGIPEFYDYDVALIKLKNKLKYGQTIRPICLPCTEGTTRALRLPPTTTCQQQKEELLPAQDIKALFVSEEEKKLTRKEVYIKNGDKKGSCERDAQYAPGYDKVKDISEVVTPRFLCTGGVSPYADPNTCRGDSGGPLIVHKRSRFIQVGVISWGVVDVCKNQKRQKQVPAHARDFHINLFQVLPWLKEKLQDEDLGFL
Sequence of UniProt P04186 (P04186 23-761): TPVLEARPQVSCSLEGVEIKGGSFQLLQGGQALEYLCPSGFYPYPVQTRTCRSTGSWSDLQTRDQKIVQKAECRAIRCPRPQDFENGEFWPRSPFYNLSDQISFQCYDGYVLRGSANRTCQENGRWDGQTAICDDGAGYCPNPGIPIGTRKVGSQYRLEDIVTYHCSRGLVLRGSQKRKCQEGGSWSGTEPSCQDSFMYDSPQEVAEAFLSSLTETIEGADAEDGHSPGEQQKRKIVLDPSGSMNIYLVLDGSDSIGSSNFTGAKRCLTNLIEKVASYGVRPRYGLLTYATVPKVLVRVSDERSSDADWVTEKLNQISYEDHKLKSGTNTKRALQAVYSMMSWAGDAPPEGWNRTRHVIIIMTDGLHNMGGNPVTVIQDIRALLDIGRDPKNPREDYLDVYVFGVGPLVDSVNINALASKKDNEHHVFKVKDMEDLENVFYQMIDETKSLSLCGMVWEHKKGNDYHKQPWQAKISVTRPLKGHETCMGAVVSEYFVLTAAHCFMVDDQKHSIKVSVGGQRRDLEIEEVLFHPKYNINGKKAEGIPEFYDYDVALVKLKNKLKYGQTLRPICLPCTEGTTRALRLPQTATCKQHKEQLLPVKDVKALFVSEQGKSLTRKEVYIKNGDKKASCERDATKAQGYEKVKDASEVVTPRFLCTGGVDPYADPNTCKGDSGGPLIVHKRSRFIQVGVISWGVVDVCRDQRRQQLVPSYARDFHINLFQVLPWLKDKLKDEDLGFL

As for “mouse monoclonal antibody against human factor B (Quidel, Catalog# A227)”, in assay [1], the hemolysis OD 405 nm; Anti hfB mAb 0.4 ug + Mouse serum 50 ul (1:6 Diluted) is 0.074 OD 405 nm. Further, in assay [2], the hemolysis OD 405 nm; Anti hfB mAb 0.4 ug + Purified hfB Protein 0.5 ug is 0.051 OD 405 nm and the hemolysis OD 405 nm; Anti hfB mAb 0.8 ug + Purified hfB Protein 0.5 ug came out at 0 OD 405 nm.
Regarding “isotype matched mouse control IgG (eBioscience, Catalog# 14-4732) (antibody)”, in assay [3], the hemolysis OD 405 nm; Control IgG 5 ng + Purified hfB protein 0.5 ug was determined as 0.428 OD 405 nm, the hemolysis OD 405 nm; Control IgG 10 ng + Purified hfB protein 0.5 ug amounted to 0.361 OD 405 nm, the hemolysis OD 405 nm; Control IgG 20 ng + Purified hfB protein 0.5 ug was determined as 0.441 OD 405 nm and the hemolysis OD 405 nm; Control IgG 30 ng + Purified hfB protein 0.5 ug stood at 0.392 OD 405 nm. In assay [3], the hemolysis OD 405 nm; Control IgG 40 ng + Purified hfB protein 0.5 ug was found to be 0.426 OD 405 nm, the hemolysis OD 405 nm; Control IgG 50 ng + Purified hfB protein 0.5 ug came out at 0.43 OD 405 nm, the hemolysis OD 405 nm; Control IgG 60 ng + Purified hfB protein 0.5 ug is 0.416 OD 405 nm and the hemolysis OD 405 nm; Control IgG 70 ng + Purified hfB protein 0.5 ug stood at 0.395 OD 405 nm. Besides, in assay [3], the hemolysis OD 405 nm; Control IgG 80 ng + Purified hfB protein 0.5 ug was found to be 0.387 OD 405 nm, the hemolysis OD 405 nm; Control IgG 90 ng + Purified hfB protein 0.5 ug is 0.347 OD 405 nm, the hemolysis OD 405 nm; Control IgG 100 ng + Purified hfB protein 0.5 ug is 0.397 OD 405 nm and the hemolysis OD 405 nm; Control IgG 150 ng + Purified hfB protein 0.5 ug came to 0.426 OD 405 nm. In assay [3], the hemolysis OD 405 nm; Control IgG 200 ng + Purified hfB protein 0.5 ug stood at 0.347 OD 405 nm, the hemolysis OD 405 nm; Control IgG 400 ng + Purified hfB protein 0.5 ug is 0.506 OD 405 nm, the hemolysis OD 405 nm; Control IgG 800 ng + Purified hfB protein 0.5 ug came to 0.538 OD 405 nm and the hemolysis OD 405 nm; Control IgG 1600 ng + Purified hfB protein 0.5 ug was 0.618 OD 405 nm. Further, the hemolysis OD 405 nm; Control IgG 2400 ng + Purified hfB protein 0.5 ug in assay [3] amounted to 0.588 OD 405 nm.
As to “monoclonal anti-human factor D antibody (Affinity Bioreagents, Catalog# GAU008-01-02)”, in assay [3], the hemolysis OD 405 nm; Anti-hfD mAb 5 ng + Purified hfB protein 0.5 ug was 0.373 OD 405 nm, the hemolysis OD 405 nm; Anti-hfD mAb 10 ng + Purified hfB protein 0.5 ug was 0.432 OD 405 nm, the hemolysis OD 405 nm; Anti-hfD mAb 20 ng + Purified hfB protein 0.5 ug was 0.369 OD 405 nm and the hemolysis OD 405 nm; Anti-hfD mAb 30 ng + Purified hfB protein 0.5 ug turned out to be 0.235 OD 405 nm. Moreover, in assay [3], the hemolysis OD 405 nm; Anti-hfD mAb 40 ng + Purified hfB protein 0.5 ug was found to be 0.227 OD 405 nm, the hemolysis OD 405 nm; Anti-hfD mAb 50 ng + Purified hfB protein 0.5 ug was determined as 0.165 OD 405 nm, the hemolysis OD 405 nm; Anti-hfD mAb 60 ng + Purified hfB protein 0.5 ug is 0.126 OD 405 nm and the hemolysis OD 405 nm; Anti-hfD mAb 70 ng + Purified hfB protein 0.5 ug came to 0.103 OD 405 nm. Further, in assay [3], the hemolysis OD 405 nm; Anti-hfD mAb 80 ng + Purified hfB protein 0.5 ug stood at 0.078 OD 405 nm, the hemolysis OD 405 nm; Anti-hfD mAb 90 ng + Purified hfB protein 0.5 ug was determined as 0.058 OD 405 nm, the hemolysis OD 405 nm; Anti-hfD mAb 100 ng + Purified hfB protein 0.5 ug worked out at 0.061 OD 405 nm and the hemolysis OD 405 nm; Anti-hfD mAb 150 ng + Purified hfB protein 0.5 ug worked out at 0.035 OD 405 nm. For the same substance, in assay [3], the hemolysis OD 405 nm; Anti-hfD mAb 200 ng + Purified hfB protein 0.5 ug was determined as 0.029 OD 405 nm, the hemolysis OD 405 nm; Anti-hfD mAb 400 ng + Purified hfB protein 0.5 ug is 0.022 OD 405 nm, the hemolysis OD 405 nm; Anti-hfD mAb 800 ng + Purified hfB protein 0.5 ug is 0.015 OD 405 nm and the hemolysis OD 405 nm; Anti-hfD mAb 1600 ng + Purified hfB protein 0.5 ug came to 0.014 OD 405 nm. Further, the hemolysis OD 405 nm; Anti-hfD mAb 2400 ng + Purified hfB protein 0.5 ug in assay [3] came out at 0.049 OD 405 nm.
